Here are results for one molecule from patent publication US20240199739A1 (Takeda / Millennium, published 2024).

The target of this experiment is cyno EpCAM (cyno). The experiment in a line: assay not stated; drawn table, heading 'Binding Affinity (nM)', column 'Cyno'.
Sequence of cyno EpCAM (cyno) (Q1WER1 24-265): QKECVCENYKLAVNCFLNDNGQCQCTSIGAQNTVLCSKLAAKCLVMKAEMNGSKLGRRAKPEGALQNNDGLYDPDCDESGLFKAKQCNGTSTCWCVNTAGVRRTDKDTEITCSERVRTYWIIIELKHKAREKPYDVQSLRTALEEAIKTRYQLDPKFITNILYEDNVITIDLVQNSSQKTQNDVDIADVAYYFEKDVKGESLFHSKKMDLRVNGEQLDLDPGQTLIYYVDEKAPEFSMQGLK

B1: hVIB-23 (VHH)
VHH: QVQLVESGGGLVQPGGSLTLSCVISGSFSALWAMRWYRQAPGQQRELVASSRGGTTSYADSVKGRFTISRDNSKNTLYLQMNSLRPEDTAVYYCNAIDGHLAYWGQGTLVTVSS
B1 displayed a Kd of 51.8 nM.
